In US20260049151A1 (SHENGHE CHINA BIOPHARMACEUTICAL, published 2026):
Read-outs that look alike come from different tables or passages of the source.

T1: Human-TNFR2-His (human, UniProt P20333 23-257)
T1 construct: Bought protein; also called human TNFR2 protein; TNFR2 protein; not shown: His tag
T1 sequence (looked up): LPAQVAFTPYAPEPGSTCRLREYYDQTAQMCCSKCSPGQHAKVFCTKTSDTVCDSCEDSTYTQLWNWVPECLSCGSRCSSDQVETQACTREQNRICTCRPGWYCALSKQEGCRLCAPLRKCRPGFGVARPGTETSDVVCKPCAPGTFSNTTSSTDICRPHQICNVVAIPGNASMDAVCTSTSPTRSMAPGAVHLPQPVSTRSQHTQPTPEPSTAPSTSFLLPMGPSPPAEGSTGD

T2: Human TNFR2 mFc (human, UniProt P20333 23-257)
T2 construct: Bought protein; not shown: mFc
T2 sequence (looked up): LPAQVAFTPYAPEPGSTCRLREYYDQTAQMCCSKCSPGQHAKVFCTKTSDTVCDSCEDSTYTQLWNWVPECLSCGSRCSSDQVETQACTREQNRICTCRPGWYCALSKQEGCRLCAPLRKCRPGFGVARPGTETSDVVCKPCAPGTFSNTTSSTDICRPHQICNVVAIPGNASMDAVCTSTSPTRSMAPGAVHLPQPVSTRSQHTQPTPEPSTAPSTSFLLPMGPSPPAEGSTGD


Key:
Human-TNFR2-His [1] = molecular target: T1, Human-TNFR2-His; assay: ELISA: Human-TNFR2-His coated (0.1 ug/mL), antibody titrated, goat anti-human IgG Fc detection (Example 2)
Protocol: (§1) Human-TNFR2-His (manufacturer: SINO, CAT: 10417-H08H, LOT: LC15NO0412) was diluted to 0.1 μg/mL with a coating solution (1×PBS, pH7.4), and coated in 96-well ELISA plate at 100 µL/well overnight at 4° C. The coating solution was poured off. Each well was washed with 1×PBST at 300 μL, washed 4 times with a plate washer, and patted dry on a flat paper. It was blocked with 3% skim milk powder at 300 μL/well, and incubated at 37° C. for 1 h. The blocking solution was poured off, washed 4 times with a plate washer, and patted dry on a flat paper. Negative control and positive control were set up. […] The positive control and antibody were diluted to 10 μg/mL with 3% skim milk powder as the starting concentration, and then diluted by 3-fold gradient (11 gradients in total), and a blank well was set up and only the diluent was added. It was incubated at 37° C. for 1 h at 100 μL/well. The liquid in the well was discarded, washed 4 times with a plate washer, and patted dry on a flat paper. Goat anti-human IgG Fc was diluted with 3% skim milk powder at 1:10000, and incubated at 37° C. for 1 h at 100 μL/well. It was washed 6 times with a plate washer, and patted dry on a flat paper. TMB color developing solution was added at 100 μL/well, and wrapped with aluminum foil. Color development was performed at 37° C. in the dark for 8 min. Termination solution 1M HCl was added to terminate the color development reaction at 100 μL/well. Readings were taken at 450 nm on an ELISA reader.

Human-TNFR2-His [2] = molecular target: T1, Human-TNFR2-His; assay: as above; remark: listed apart in the source
Protocol: as §1

Human-TNFR2-His [3] = molecular target: T1, Human-TNFR2-His; assay: as above; remark: listed apart in the source
Protocol: as §1

Human-TNFR2-His [4] = molecular target: T1, Human-TNFR2-His; assay: as above; remark: listed apart in the source
Protocol: as §1

Human-TNFR2-His [5] = molecular target: T1, Human-TNFR2-His; assay: BLI, antibody on AHC sensor, 100 nM TNFR2-His in solution
Protocol: The AHC sensor was soaked in 0.02% PBST (0.02% Tween 20, pH 7.4, 1×PBS) as a buffer for 600 s to remove the sucrose covering the sensor surface. The AHC sensor was equilibrated with 0.02% PBST (0.02% Tween 20, pH 7.4, 1×PBS) as a buffer for 60 s, the antibody in the sample plate was solidified for 300 s, and the secondary equilibration buffer was used for 180 s. 100 nM human-TNFR2-His (manufacturer: SINO, CAT: 10417-H08H, LOT: LC15NO0412) protein was bound to the antibody for 300 s and then dissociated for 600 s. After dissociation, 10 mM glycine (pH 2.0) was used as a regeneration buffer for 30 s. The sensor was regenerated with 10 mM glycine (pH 2.0).

Human TNFR2 mFc = molecular target: T2, Human TNFR2 mFc; assay: bridging ELISA: Human TNFR2 mFc coated (0.3 ug/mL), antibody titrated, then Human 4-1BB His (0.3 ug/mL), HRP anti-His detection (Example 5)
Protocol: Human TNFR2 mFc (manufacturer: Kaixia, CAT: TN-HM3R2, LOT: 031202) was diluted to 0.3 μg/mL with a coating solution (1×PBS, pH7.4) and coated into a 96-well ELISA plate at 100 μL/well at 4° C. overnight. The coating solution was poured off. Each well was washed with 1×PBST at 300 μL, washed 4 times with a plate washer, and patted dry on a flat paper. It was blocked with 3% skim milk powder at 300 μL/well, and incubated at 37° C. for 1 h. The blocking solution was poured off, washed 4 times with a plate washer, and patted dry on a flat paper. […] Starting at 50 nM, which was used as the initial concentration for 3-fold dilution, a total of 10 gradients were diluted, and a blank well was set up and only the diluent was added. It was incubated at 37° C. for 1 h at 100 µL/well. The liquid in the well was discarded, washed 4 times with a plate washer, and patted dry on a flat paper. Human 4-1BB His (manufacturer: Acro, CAT: 41B-H5258, LOT: 198-2146F1-W6) was diluted to 0.3 μg/mL, 100 μL was added to each well, and incubated at room temperature for 1 h. The plate was washed 3 times with PBST, and then the HRP-labeled his antibody was diluted with sample diluent at 1:5000, 100 μ L was added to each well, and incubated at room temperature for 1 h. It was washed 6 times with a plate washer, and patted dry on a flat paper. TMB color developing solution was added at 100 μL/well, and wrapped with aluminum foil. Color development was performed at 37° C. in the dark for 8 min. Termination solution 1M HCl was added to terminate the color development reaction at 100 μL/well. Readings were taken at 450 nm on an ELISA reader.

Human 4-1BB His [6] = molecular target: T3, Human 4-1BB His (human, UniProt Q07011 24-186); assay: ELISA: Human 4-1BB His coated (0.2 ug/mL), antibody titrated, goat anti-human IgG Fc detection (Example 3)
T3 construct: Bought protein; lots 198-2146F1-W6 and 2407c-214FF1-YC; also called human 4-1BB protein; 4-1BB protein; not shown: His tag
T3 sequence (Q07011 24-186 limits assumed): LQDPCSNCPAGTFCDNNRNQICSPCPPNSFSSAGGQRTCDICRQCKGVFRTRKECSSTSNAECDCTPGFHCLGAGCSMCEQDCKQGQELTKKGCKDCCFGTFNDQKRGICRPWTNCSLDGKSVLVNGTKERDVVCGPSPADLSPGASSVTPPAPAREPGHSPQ
Protocol: (§2) Human 4-1BB His (manufacturer: Acro, CAT: 41B-H5258, LOT: 198-2146F1-W6) was diluted to 0.2 μg/mL with a coating solution (1×PBS, pH7.4), and coated in 96-well ELISA plate at 100 μL/well overnight at 4° C. The coating solution was poured off. Each well was washed with 1×PBST at 300 μL, washed 4 times with a plate washer, and patted dry on a flat paper. It was blocked with 3% skim milk powder at 300 μL/well, and incubated at 37° C. for 1 h. The blocking solution was poured off, washed 4 times with a plate washer, and patted dry on a flat paper. Negative control and positive control were set up. […] The variable region of the antibody sequence of the positive control consists of SEQ ID NO: 15 and SEQ ID NO: 19, with the addition of the constant region of human IgG1 (SEQ ID NO: 46 and SEQ ID NO: 47). The positive control and antibody were diluted to 10 μg/mL with 3% skim milk powder as the starting concentration, and then diluted by 3-fold gradient (11 gradients in total), and a blank well was set up and only the diluent was added. It was incubated at 37° C. for 1 h at 100 μL/well. The liquid in the well was discarded, washed 4 times with a plate washer, and patted dry on a flat paper. Goat anti-human IgG Fc was diluted with 3% skim milk powder at 1:20000, and incubated at 37° C. for 1 h at 100 μL/well. It was washed 6 times with a plate washer, and patted dry on a flat paper. TMB color developing solution was added at 100 μL/well, and wrapped with aluminum foil. Color development was performed at 37° C. in the dark for 8 min. Termination solution 1M HCl was added to terminate the color development reaction at 100 μL/well. Readings were taken at 450 nm on an ELISA reader.

Human 4-1BB Fc = molecular target: T4, Human 4-1BB Fc (human, UniProt Q07011 24-186); assay: bridging ELISA: Human 4-1BB Fc coated (0.3 ug/mL), antibody titrated, then Human-TNFR2-His (0.3 ug/mL), HRP anti-His detection (Example 4)
T4 construct: same catalogue and lot number as Human 4-1BB His; not shown: Fc
T4 sequence (Q07011 24-186 limits assumed): as above
Protocol: Human 4-1BB Fc (manufacturer: Acro, CAT: 41B-H5258, LOT: 198-2146F1-W6) was diluted to 0.3 μg/mL with a coating solution (1×PBS, pH7.4) and coated into a 96-well ELISA plate at 100 µL/well at 4° C. overnight. The coating solution was poured off. Each well was washed with 1×PBST at 300 μL, washed 4 times with a plate washer, and patted dry on a flat sheet. It was blocked with 3% skim milk powder at 300 μL/well, and incubated at 37° C. for 1 h. The blocking solution was poured off, washed 4 times with a plate washer, and patted dry on a flat sheet. […] Starting at 50 nM, which was used as the initial concentration for 3-fold dilution, a total of 10 gradients were diluted, and a blank well was set up and only the diluent was added. It was incubated at 37° C. for 1 h at 100 μL/well. The liquid in the well was discarded, washed 4 times with a plate washer, and patted dry on a flat paper. Human-TNFR2-His (manufacturer: Sino, CAT: 10417-H08H, LOT: LC15NO0412) was diluted to 0.3 μg/mL, 100 μL was added to each well, and incubated at room temperature for 1 h. The plate was washed 3 times with PBST, and then the HRP-labeled his antibody was diluted with sample diluent at 1:5000, 100 μ L was added to each well, and incubated at room temperature for 1 h. It was washed 6 times with a plate washer, and patted dry on a flat paper. TMB color developing solution was added at 100 μL/well, and wrapped with aluminum foil. Color development was performed at 37° C. in the dark for 8 min. Termination solution 1M HCl was added to terminate the color development reaction at 100 μL/well. Readings were taken at 450 nm on an ELISA reader.

Human 4-1BB His [7] = molecular target: T3, Human 4-1BB His; assay: ELISA: Human 4-1BB His coated (0.2 ug/mL), antibody titrated, goat anti-human IgG Fc detection (Example 3); remark: listed apart in the source
Protocol: as §2

Human-TNFR2-His [8] = molecular target: T1, Human-TNFR2-His; assay: ELISA: Human-TNFR2-His coated (0.1 ug/mL), antibody titrated, goat anti-human IgG Fc detection (Example 2); remark: listed apart in the source
Protocol: as §1

EC50 (read off the curve) (Human-TNFR2-His [2]) | EC50 (read off the curve) (Human TNFR2 mFc) | EC50 (read off the curve) (Human 4-1BB His [6]) | EC50 (read off the curve) (Human 4-1BB Fc) | EC50 (read off the curve) (Human-TNFR2-His [8]) | Binder | other results
~0.03 nM | – | – | – | – | Positive control 1 (anti-TNFR2 antibody, human IgG1) (antibody, V domains shown) VH: EVQLVQSGAEVKKPGATVKISCKVSGYSITDYLLHWVQQAPGKGLEWMGWIDPEDAKTKYGQKFQSRVTITADTSTDTAYMELSSLRSEDTAVYYCAANSGTGTMDAWGQGTLVTVSS VL: DIVMTQSPATLSVSPGERATLSCKASQNVGSNVDWYQQKPGQSPRVLIYKASIRYTGIPARFSGSGSGTEFTLTISILQSEDFAVYFCMQSKSYPITFGQGTKLEIK | EC50 (read off the curve) (Human-TNFR2-His [1]): ~0.03 nM; EC50 (read off the curve) (Human-TNFR2-His [3]): ~0.03 nM; EC50 (read off the curve) (Human-TNFR2-His [4]): ~0.03 nM; Kd (Human-TNFR2-His [5]): 0.0724 nM; koff (Human-TNFR2-His [5]): 1.86e-05 s⁻¹; kon (Human-TNFR2-His [5]): 257000 M⁻¹ s⁻¹
~0.4 nM | ~0.2 nM | ~0.2 nM | ~0.5 nM | – | Antibody A (bispecific antibody, human IgG1, kappa, IgG1 subtype; full-length 4-1BB antibody with TNFR2 scFv at the C-terminus of the heavy chains; two identical first and two identical second peptide chains) light: DIQMTQSPSSLSASLGDRVTISCSASQGISNYLNWYQQKPDGTVKLLIYYTSTLHSGVPSRFSGSGSGTDYTLTISSLQPEDIATYYCQQYSKLPWTFGGGTKLEIKRTVAAPSVFIFPPSDEQLKSGTASVVCLLNNFYPREAKVQWKVDNALQSGNSQESVTEQDSKDSTYSLSSTLTLSKADYEKHKVYACEVTHQGLSSPVTKSFNRGEC heavy: not shown | –
~0.06 nM | ~0.2 nM | ~0.1 nM | ~0.5 nM | – | Antibody C (bispecific antibody, human IgG1, kappa, IgG1 subtype; full-length 4-1BB antibody with TNFR2 scFv at the N-terminus of the heavy chains) light: DIQMTQSPSSLSASLGDRVTISCSASQGISNYLNWYQQKPDGTVKLLIYYTSTLHSGVPSRFSGSGSGTDYTLTISSLQPEDIATYYCQQYSKLPWTFGGGTKLEIKRTVAAPSVFIFPPSDEQLKSGTASVVCLLNNFYPREAKVQWKVDNALQSGNSQESVTEQDSKDSTYSLSSTLTLSKADYEKHKVYACEVTHQGLSSPVTKSFNRGEC heavy: not shown | –
– | – | – | – | ~0.2 nM | Antibody J2 (bispecific antibody, human IgG4 S228P, kappa, IgG4 subtype; same order as J1) light: DIQMTQSPSSLSASLGDRVTISCSASQGISNYLNWYQQKPDGTVKLLIYYTSTLHSGVPSRFSGSGSGTDYTLTISSLQPEDIATYYCQQYSKLPWTFGGGTKLEIKRTVAAPSVFIFPPSDEQLKSGTASVVCLLNNFYPREAKVQWKVDNALQSGNSQESVTEQDSKDSTYSLSSTLTLSKADYEKHKVYACEVTHQGLSSPVTKSFNRGEC heavy: not shown | EC50 (read off the curve) (Human 4-1BB His [7]): ~0.2 nM
– | – | – | – | ~0.1 nM | Antibody M2 (bispecific antibody, human IgG4 S228P, kappa, IgG4 subtype; same order as M1) light: DIQMTQSPSSLSASLGDRVTISCSASQGISNYLNWYQQKPDGTVKLLIYYTSTLHSGVPSRFSGSGSGTDYTLTISSLQPEDIATYYCQQYSKLPWTFGGGTKLEIKRTVAAPSVFIFPPSDEQLKSGTASVVCLLNNFYPREAKVQWKVDNALQSGNSQESVTEQDSKDSTYSLSSTLTLSKADYEKHKVYACEVTHQGLSSPVTKSFNRGEC heavy: not shown | –
